Test results published in patent US20030232742A1, “FAP-activated anti-tumor compounds” (priority 2000, published 2003).
*1 amine or outer side, *2 acyl side, *3 side chain or, on linkers, in order; H or OH if unused. Where no end group is shown, it is not given here. [ ]: non-standard residue; d: D form. The star is where a group is joined. morpholino‑(ethyloxycarbonyl) = morpholino-(ethyloxycarbonyl) N-terminal blocking group, O=C(OCCN1CCOCC1)*; NH(4-MeO-2-naphthyl) = COc1cc(N*)cc2ccccc12; Glutaryl = O=C(CCCC(=O)[*:2])[*:1]; Suc = O=C(CCC(=O)[*:2])[*:1]; 4Amb = NCc1ccc(C(=O)O)cc1; NMeA = CN[C@@H](C)C(=O)O

Biological target: T1, FAP (Homo sapiens, UniProt Q12884)
T1 construct: Cell extract from 293 cells stably transfected with FAP prepared as described; expressed in transfected cells; detergent extract used
T1 sequence (Q12884 1-760): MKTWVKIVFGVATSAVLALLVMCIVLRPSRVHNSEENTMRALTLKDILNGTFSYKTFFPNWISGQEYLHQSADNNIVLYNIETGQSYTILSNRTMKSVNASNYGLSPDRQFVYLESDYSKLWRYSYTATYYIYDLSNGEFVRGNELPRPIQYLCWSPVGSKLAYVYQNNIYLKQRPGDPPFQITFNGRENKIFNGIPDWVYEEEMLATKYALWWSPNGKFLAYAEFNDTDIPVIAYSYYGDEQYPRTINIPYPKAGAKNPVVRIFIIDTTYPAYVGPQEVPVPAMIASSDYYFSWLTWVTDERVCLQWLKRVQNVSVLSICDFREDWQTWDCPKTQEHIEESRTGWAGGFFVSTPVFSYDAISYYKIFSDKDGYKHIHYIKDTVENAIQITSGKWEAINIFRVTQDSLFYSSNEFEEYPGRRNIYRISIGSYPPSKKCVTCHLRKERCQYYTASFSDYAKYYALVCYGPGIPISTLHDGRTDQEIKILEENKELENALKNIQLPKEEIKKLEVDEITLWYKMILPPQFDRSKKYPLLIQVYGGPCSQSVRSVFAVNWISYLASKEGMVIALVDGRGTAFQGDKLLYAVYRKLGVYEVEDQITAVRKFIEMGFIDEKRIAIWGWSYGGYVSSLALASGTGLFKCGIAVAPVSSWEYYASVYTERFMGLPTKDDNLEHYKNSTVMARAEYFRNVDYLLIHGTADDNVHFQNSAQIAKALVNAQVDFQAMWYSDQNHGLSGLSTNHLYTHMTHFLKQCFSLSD
Assay: Assay for cleavage of MNA substrates by FAP
Assay type: biochemical
Details: 1 ng FAP enzyme in 293 cell extract, 20 μl 2.5 mM substrate (a few diluted further), room temperature 1 hour, control 293 extract subtracted
From the text: To identify preferred FAPα peptide substrates, blocked oligopeptides composed of natural amino carboxylic acids were synthesized and coupled to Proline-4-methoxy-β-napthylamine (Pro-MNA) using methods known to the art (E. Wünsch, Synthese von Peptiden, in Methoden der organischen Chemie, Houben-Weyl (Eds. E. Müller, 0. Bayer), Vol. XV, Part 1 and 2, Georg Thieme Verlag, Stuttgart, 1974). The turnover and cleavage rate have been determined with the aid pf the following assay:
Assay for Cleavage of MNA Substrates by FAP:
Cell extract from 293 cells stably transfected with FAP prepared as described (see Park, et al., Fibroblast Activation Protein, a Dual Specificity Serine Protease expressed in human tumor stromal fibroblasts. (1999) J. Biol. Chem. 36505-12.). A similar extract was also prepared from parental 293 control cells without FAP. The FAP concentration in the FAP-transfected cell extract was estimated by immunoassay and 1 ng enzyme (diluted in buffer A) was used per assay. FAP-negative 293 control cell extract was used at the same dilution (also in buffer A) as a negative control. Substrate was initially dissolved in dimethylformamide at a concentration of 200 mM and diluted in buffer A to a final concentration of 2.5 mM. A few substrates were not soluble at this concentration and had to be diluted further.
10 μl 10% DMSO in buffer A
70 μl diluted FAP cell extract containing 1 ng FAP enzyme (OR control 293 cell extract without FAP)
Mix, incubate at room temperature for 1 hour, and measure fluorescence in Fluorostar fluorimeter at the following wavelengths:
MNA conjugates: Excitation: 355 nm, Emission: 405 nm.
The fluorescence measured in the samples treated with control 293 control cell extracts without FAP is subtracted from the values measured in the samples treated with 1 ng FAP enzyme.

Substance	% Turnover	Cleavage
1-Methylpyrrol-2-ylcarbonyl Pro-Ala-Gly-Pro-MNA ({1‑methylpyrrol‑2‑ylcarbonyl}-PAGP-{NH(4-MeO-2-naphthyl)})	0.13%	0.33 µM
2-Fluorphenylacetyl-Gly-Pro-MNA	0.26%	1.28 µM
2-Morpholino-ethyl-Pro-Ala-Gly-Pro-MNA ({2‑morpholino‑ethyl}-PAGP-{NH(4-MeO-2-naphthyl)})	0.26%	0.64 µM
3 -Pyridylmethyloxycarbonyl-Gly-Pro-MNA	0.72%	3.58 µM
3,5-Difluorphenylacetyl-Gly-Pro-MNA	2.26%	2.26 µM
3-Carboxyphenylsulfonyl-Pro-Ala-Gly-Pro-MNA ({3‑carboxyphenylsulfonyl}-PAGP-{NH(4-MeO-2-naphthyl)})	0.58%	2.88 µM
3-Fluorphenylacetyl-Gly-Pro-MNA	0.35%	1.77 µM
3-Pyridylacetyl-Gly-Pro-MNA	1.82%	9.12 µM
4-(2-Aminothiazol-5-yl)-acetyl-Pro-Ala-Gly-Pro-MNA ({(2-aminothiazol-5-yl)‑acetyl}-PAGP-{NH(4-MeO-2-naphthyl)})	0.39%	1.94 µM
4-Amino-Phenylacetyl-Gly-Pro-MNA	0.6%	3 µM
4-Aminomethylbenzoyl-Pro-Ala-Gly-Pro-MNA ([4Amb]PAGP-{NH(4-MeO-2-naphthyl)})	0.24%	1.21 µM
4-Aminomethylphenylacetyl-Pro-Ala-Gly-Pro-MNA ({4‑aminomethylphenylacetyl}-PAGP-{NH(4-MeO-2-naphthyl)})	0.26%	1.28 µM
4-Dimethylaminobenzoyl-Pro-Ala-Gly-Pro-MNA ({4‑dimethylaminobenzoyl}-PAGP-{NH(4-MeO-2-naphthyl)})	0.37%	1.85 µM
4-Fluorphenylacetyl-Gly-Pro-MNA	0.42%	2.08 µM
4-Hydroxyphenylacetyl-Pro-Ala-Gly-Pro-MNA ({4‑hydroxyphenylacetyl}-PAGP-{NH(4-MeO-2-naphthyl)})	0.69%	1.72 µM
4-Pyridylmethyloxycarbonyl-Gly-Pro-MNA	1.18%	5.92 µM
4-Pyridylmethyloxycarbonyl-Pro-Ala-Gly-Pro-MNA ({4‑pyridylmethyloxycarbonyl}-PAGP-{NH(4-MeO-2-naphthyl)})	1.28%	6.38 µM
Glutaryl-Pro-Ala-Gly-Pro-MNA (Glutaryl-PAGP-{NH(4-MeO-2-naphthyl)}; SMILES COc1cc(NC(=O)[C@@H]2CCCN2C(=O)CNC(=O)[C@H](C)NC(=O)[C@@H]2CCCN2C(=O)CCCC(=O)O)cc2ccccc12)	0.3%	1.48 µM
Malonyl-Pro-Ala-Gly-Pro-MNA (malonyl-PAGP-{NH(4-MeO-2-naphthyl)})	0.21%	1.05 µM
Morpholino-(ethyloxycarbonyl)-Pro-Ala-Gly-Pro-MNA ({morpholino‑(ethyloxycarbonyl)}-PAGP-{NH(4-MeO-2-naphthyl)}; SMILES COc1cc(NC(=O)[C@@H]2CCCN2C(=O)CNC(=O)[C@H](C)NC(=O)[C@@H]2CCCN2C(=O)OCCN2CCOCC2)cc2ccccc12)	0.65%	3.25 µM
Morpholino-carbonyl-Pro-Ala-Gly-Pro-MNA ({morpholino‑carbonyl}-PAGP-{NH(4-MeO-2-naphthyl)})	0.6%	2.99 µM
Prazin-2-ylcarbonyl-Pro-Ala-Gly-Pro-MNA ({pyrazin‑2‑ylcarbonyl}-PAGP-{NH(4-MeO-2-naphthyl)})	0.56%	0.7 µM
Pyrid-3-ylmethyloxycarbonyl-2-Aze-Ala-Gly-Pro-MNA	3.42%	17.1 µM
Pyrid-3-ylmethyloxycarbonyl-MeAla-Ala-Gly-Pro-MNA ({pyrid‑3‑ylmethyloxycarbonyl}-[NMeA]AGP-{NH(4-MeO-2-naphthyl)}) [MeAla represents a N-methylalanin moiety]	1.27%	6.31 µM
Pyrid-3-ylmethyloxycarbonyl-Pip-Ala-Gly-Pro-MNA	0.56%	2.78 µM
Pyrid-4-ylmethyloxycarbonyl-2-Aze-Ala-Gly-Pro-MNA	1.61%	8.07 µM
Pyrid-4-ylmethyloxycarbonyl-Pip-Ala-Gly-Pro-MNA	0.43%	2.16 µM
Pyridin-3-ylmethoxycarbonyl-Pro-Ala-Gly-Pro-MNA ({pyridin‑3‑ylmethoxycarbonyl}-PAGP-{NH(4-MeO-2-naphthyl)})	1.77%	8.86 µM
Succinyl-Pro-Ala-Gly-Pro-MNA (Suc-PAGP-{NH(4-MeO-2-naphthyl)}; SMILES COc1cc(NC(=O)[C@@H]2CCCN2C(=O)CNC(=O)[C@H](C)NC(=O)[C@@H]2CCCN2C(=O)CCC(=O)O)cc2ccccc12)	0.29%	1.44 µM

Biological target: T2, FAPα dimers (Homo sapiens, UniProt Q12884)
T2 sequence (Q12884 1-760): T1 sequence (Q12884 1-760)
Assay: not given
Details: membrane overlay assay, WO 97/34927; cited from earlier work

Substance	cleavage of dipeptide coumarin substrate
Ala-Pro-7-amino-4-trifluoromethyl coumarin	able to cleave
Gly-Pro-7-amino-4-trifluoromethyl coumarin	able to cleave
Lys-Pro-7-amino-4-trifluoromethyl coumarin	able to cleave
